# Assay: soluble on expression in E. coli; label from the status in PepcDB or PDB records
row,Sequence,soluble on expression in E. coli
1,SSDLGSEELEEEGENDLGEYEGERNELGERHGHGKARLPNGDTYEGNYESGKRHGQGTYKFKNGARYVGDYVKNKKHGQGTFVYPDGSRYEGEWADDQRHGHGVYYYVNNDTYTGEWFNHQRHGQGTYFYAETGSKYVGTWVHGQQEGAAELIHLNHRYQGKFINKNPVGPGKYVFDVGCEQHGEYRLTDVERGEEEEEEETLVSIVPKWKALKITELALWTPTLSEEHPPAEGQGQEEVQGATGAGEPSDDIQAEGFEVDAEPRTGEEDIDFRQESQENSYDLDQGNPNFDEEQLDLQE,soluble
2,MGSDKIHHHHHHMDMNQGGLISLSPHAQVLLRPEGIQFGLDSANAGIFAAPESLIVAIVQVLRGFWQPIAKTTAIEQLTEAGLQPVAARGLIDDLLHHRVLSIVERNLTVAVGGFGPLVAPIKAVLGCAGISVVQAHTIQRCMTLESLLSREVPLIWINSTPSFSHIAQELVEVKTMIPVGLMDNHAIIGPVRIDGRGPCGLCTDLYRSDADPQWPALLKNATAPLTAPAALTYATAARVTRLVEQLSEPRQRVTVTAGLVIRVSSDGELSSEIMSPHSRCPLCWSSRWDCDPLTGTEQAFLADLGQNVLL,not soluble
3,MSSVAVLTQESFAEHRSGLVPQQIKVATLNSEEESDPPTYKDAFPPLPEKAACLESAQEPAGAWSNKIRPIKASVITQVFHVPLEERKYKDMNQFGEGEQAKICLEIMQRTGAHLELSLAKDQGLSIMVSGKLDAVMKARKDIVARLQTQASATVPIPKEHHRFVIGKNGEKLQDLELKTATKIQIPRPDDPSNQIKITGTKEGIEKARHEVLLISAEQDKRAVERLEVEKAFHPFIAGPYNRLVGEIMQETGTRINIPPPSVNRTEIVFTGEKEQLAQAVARIKKIYEEKKKKTTTIAVEVKKSQHKYVIGPKGNSLQEILERTGVSVEIPPSDSISETVILRGEPEKLGQALTEVYAKVASSKIKLCSDNS,not soluble
4,MNTDEYYMRLAMEEAKKAEQIGEVPIGAVIVQDGRVIARAHNLRETEQRAIAHAEILAIDEACRATGSWRLERATLYVTLEPCAMCAGAIVLSRIERVVFGAFDPKGGCAGTLMNLLQESRFNHQVKVVSGVLADECGSLLSQFFRRLREQKRNVGGSANENSVD,not soluble
5,MSLTVHATPEPAAHQGVALGSSFYAAMRILPRPQREAMFQVYSFCRFVDDIADSDRPREQRVAELQQWRDDIAALYRGAPPPRLADYQESLRTFGLKREDFEAIIDGMEMDVDADIRAPDEATLDLYCDRVASAVGRLSVRIFGLPEADGIELSHHLGRALQLTNILRDIDEDAGIGRLYLPSELLHKVGITATDPRVVAADSALPSVCAPLVERALAHFAAADKVMNRNPRRVVKAPRIMGKYYYSILQLLIARGFAAPRAPVKLGKASKIAILLQYAIVEGHHHHHH,soluble
6,MASMTGGQQMGRGSGIVQQQSNLLRAIEAQQHLLQLTVWGIKQGGGGSEWEREISNYTDIIYRLIEESQNQQEKNEQELLALDKWASLWNWFDITNWLWYIQHHHHHH,soluble
7,MRSKRWKTSDITDYGKKRKESESCGSSSPILETQSSGGAELDEVTEDEYSSNSSSNETSDEEENSEVPNVLSITEREKSWQKLTENDLGRIRFILKYTSNTKKCVNEYFQYNHGQNNEIMKSLLLDTDGTMTAKACSECAYDLNQCHCKKPLRFINAPCEVINQVLHVENAEPTRINHVIATLFRNHIGEIFTKARTAEARASEEAQIRIQIQDNSNAFQRSYHNDPQPSSAEEHEEDIVVDG,not soluble
8,MSNLPFHQFCGTEGYVASRALQDVVNVAIALERPLLLKGEPGTGKTLLAYHIAKALGMEIILWNVKSTTKARDGLYTYDTVQRLNDARFGDGDVRDIRHYIKLGPLGRAFGSAERVVLLIDEVDKADIEFPNDLLFELDEMRFHVLETDEWVSAAHRPVVIVTSNSEKELPDAFLRRCVFHYIDFPDETQMRAIIDVHFPDLPAELMRSACKVFYGLREVPGLRKRPSTSELLDWIRVLLASGARLPEEETPALQSVPFLGALVKIQEDADILAHHASRSADVRTAGRRFFRLEHHHHHH,not soluble
9,VKRFWENVGKPNDTTDGRGTTSLAMTPISQTPGLLAEAMVDLGAIEHNVRVLREHAGHAQLMAVVKADGYGHGATRVAQTALGAGAAELGVATVDEALALRADGITAPVLAWLHPPGIDFGPALLADVQVAVSSLRQLDELLHAVRRTGRTATVTVKVDTGLNRNGVGPAQFPAMLTALRQAMAEDAVRLRGLMSHMVYADKPDDSINDVQAQRFTAFLAQAREQGVRFEVAHLSNSSATMARPDLTFDLVRPGIAVYGLSPVPALGDMGLVPAMTVKCAVALVKSIRAGEGVSYGHTWIAPRDTNLALLPIGYADGVFRSLGGRLEVLINGRRCPGVGRICMDQFMVDLGPGPLDVAEGDEAILFGPGIRGEPTAQDWADLVGTIHYEVVTSPRGRITRTYREAENR,soluble
10,MDNEMNYGSDYKFIPATSIESGHGIEVLRDLFCYTIQIVNICFVGNPETNDFVLVDAGMPKCANEIISIAKDRFGTNSRPKAIILTHGHFDHVGGIIELIKHWDVHVYAHQMEIPFLTGQQSYPEPDPTVEGGMVAKMSPLFPNEPIDLGNNVKALPTDGTVPHMPEFRWIHTPGHTPGHISLFREKDRTLIAGDAFVTVKQEYLYKVITQEQEISGPPRYLTTDWKAAKESVLKLEKLKPLTAVTGHGIPMSGELLSTSLKTLVQEFDKIAVPDYGKYIDKKMHLEHHHHHH,soluble
11,MPPLECDVLVIGSGASGLAAAVTAAHHGLTVVVAEKASQLGGTSAWSGGWLWIPRNPLAIAEGIVEADDAPERYLRAQTHTRELDPRQRAFLRHGPEMVAFFEQHTAVQFQCGSRMPDMREGDGSARGGRSLCALPYDGRRLGPWLHKLRPPLDIVSLAGMGIAGGADMAAFFNATRSPKAALHVGKRLLRHGRDLLLHRRGLHLVNGNALVARLLRSALDRGVTLLTEKAASRLLLCEERVNGALFADGQAIYARRGVVLACGGFPHDRQRISQLMPHAPDGDQHYSAAPRENSGDGLRLGEQAGGRVSAAGAHGGAWAPVSQVPRRNGHFGHFPHLIDRAKPGFIAVRRDGRRFVNEADCYHDFMNALFAATPQAEQPEAWLICDHAAQRRYGIGWAKPFPFPTRFYQRSGYLHSGATLAQLAQRCGIDAEQLQRTVEGFNHHAAQGEDPTFLRGASAYNRAQGDPQQVPNPSLRPLLKGPFHAVKLLPGSLGTFAGLDTDASARVLDHAGQPIPGLFAVGNDMHSVMGGYYPSGGITLGPGMTFGYLAGRALSAGCADHLEHHHHHH,not soluble
12,MANLCKRVVDLEKYIVKEAPPTVYYIPDFISEAEEEFLLQQVYRAPKPKWTQLSGRRLQNWGGLPNPKGMLAEKLPDWLLEYTEKISALGAFAGKTANHVLVNEYKPGEGIMPHEDGPLYHPTVTTITVGSHTLLDFYRPVCQAEPDAPQTEESRYMLSLLVQRKSLLILQDDMYKCYLHGIRGVCEDVLSEHVVNISSTGAQVGDTLPRSTRVSLTIRHVPKIIRANLFLGKK,not soluble
13,MAHHHHHHMALRGVPIRLGVHRVGYTHPSTLPVPCAQRWDLRLARARIFQEYIEEKAPGAWQLEDERSMSPEFKTFTGYPMREMRPGYGQNLPDFIMKKRLPNNTHYELFARRDIPNEENAMYGKYLYDMTVHGTSLPSTYRMHKDINKAQRNDRKLSGNRFRVLCSSGAKKPPSGWEPIPDATEEEE,not soluble
14,MCMNKKRIYKFRRFLARKLDFPSDAVMYTPRINISVTGDEEITIENYRGIVEFSDENIKVNTEVGTISIDGKNFEIVFISGSTIILGGKFKTIAYGGDKNEALEHHHHHH,soluble
15,MISPGEAVLMDGGTTTLEVARQLAGKQLQVVTNSLPIANLLVNQPQIDLMLIGGFLFPKTGVALGKTAVESLKSVHVRRLIISVGGITEDGLYNSNMLLVETEQQMFEAAEEVIVVTDSTKFGHSALAYLCPLDRVDHIVVDDGITEEWKDVIHKAGIELTVVET,not soluble
16,GWAAGDYPVVTTDHLKAMIDEKRDFLLIDARTPEEYAEAHIVGAVNVPEKTFDSASAQLPADKAKLIVLYCNGIKCGKSKRVAKKVEPLGYTAIAVYNEGMPVWEERGLPIVKGAGYGRK,not soluble
17,MADVLTELPGVGPSTADKLIEGGYLDFMKIATATIGELTDIEGISEKAAAKMIMAARDLCDLGFKSGVELLKQRQSVWRLSTGSTELDTVLAGGIESQSVTEFAGMFGSGKTQIMHQTCVNLQMREKIFADLEGVVEEELEAPKAVYIDTEGTFRPERVVQMAEGAGIDGQTVLDNTFVARAYNSDMQMLFAEKIEDLIKGGNNIKLVIIDSLTSTFRNEFTGRGKLAERQQKLGRHMATLNKLADLYNCIVLVTNQVAAKPDAYFGVAEQAIGGHVVGHAATFRFFLRKSKGDKRVAKLYDSPHLPDSEAVFRITEKGIQD,soluble
18,MLTSFGKTLRKLRIDHSERLLDMADKPGVSVAFLSSVEIGKKSVPVGMEEKIIEFYSLDKAMASLLKKEADACVERTSQSNLLIHLVVKLLACFLEI,not soluble
19,AEAAAAQAPAAGPGQMSFTFASPTQVFFNSANVRQVDVPTQTGAFGILAAHVPTLQVLRPGLVVVHAEDGTTSKYFVSSGSVTVNADSSVQLLAEEAVTLDMLDLGAAKANLEKAQSELLGAADEATRAEIQIRIEANEALVKALE,soluble
20,MYELNICHLYPDLLNLYGDRGNIMALKMRCVWRGINVNVSNISIGDKFDAEAYDIIFLGGGQDYEQEIIQDDLLNQKGEEIRNAVKNDKVFLAICGGYQLLGSYYKTWDGKEIHFLNALDLWTIGGKERMIGNFVFECDFLKNDHYDGKIVGFENHSGRTYLGPGVKPLGKIIKGYGNNGEDGFEGAIYKNVYCSYSHGSLLPKNPALADHLISVALKQKYKDFVSLSGIDDEFENLAHDTTIKRIMG,soluble
21,MKFAVIGNPISHSLSPLMHHANFQSLNLENTYEAINVPVNQFQDIKKIISEKSIDGFNVTIPHKERIIPYLDDINEQAKSVGAVNTVLVKDGKWIGYNTDGIGYVNGLKQIYEGIEDAYILILGAGGASKGIANELYKIVRPTLTVANRTMSRFNNWSLNINKINLSHAESHLDEFDIIINTTPAGMNGNTDSVISLNRLASHTLVSDIVYNPYKTPILIEAEQRGNPIYNGLDMFVHQGAESFKIWTNLEPDIKAMKNIVIQKLKGELLEHHHHHH,soluble
22,MGSDKIHHHHHHMRDHVEIGIGREARRTYSLDDISVVSSRRTRSSKDVDTTWHIDAYKFDLPFMNHPSDALASPEFVIEMGKQGGLGVINAEGLWGRHADLDEAIAKVIAAYEEGDQAAATRTLQELHAAPLDTELLSERIAQVRDSGEIVAVRVSPQNVREIAPIVIKAGADLLVIQGTLISAEHVNTGGEALNLKEFIGSLDVPVIAGGVNDYTTALHMMRTGAVGIIVGGGENTNSLALGMEVSMATAIADVAAARRDYLDETGGRYVHIIADGSIENSGDVVKAIACGADAVVLGSPLARAEEAAGKGYFWPAVAAHPRFPRGVVTESVDLDEAAPSLEQILHGPSTMPWGVENFEGGLKRALAKCGYTDLKSFQKVSLHVN,not soluble
23,MILIIYAHPYPHHSHANKRMLEQAGTLENVEIRSLYHLYPDFNIDVAAEQEALSRASLIVWQHPMQWYSVPPLLKLWMDKVLTHGWAYGHGGTALHGKHLLWAVTTGGGENHFAIGSHPGFDVLSQPLQATALYCGLKWLSPFAMHCTFICDDDTLQAQARQYKQRLLAWQEVNHG,not soluble
24,MRTVALGIVAMACLVAIAHGGNFFQDAEVSWGQGRGKIVDGGRGLDLTLDRSSGSGFQSKSEYLFGKIDMQIKLVPGGWWNQELSDMSYRRMRWVQRKFMIYNYCTDAKRFPQGTPAECKLR,not soluble

# Reference: the DeepSol protein solubility set
